Source: patent US20200223889A1 (Novo Nordisk, published 2020)
Positions of bridges follow the written chain, without caps; N, C: chain ends. Non-standard residues stand in square brackets, D forms with d. Hyp = O=C(O)[C@@H]1C[C@@H](O)CN1; Thz = O=C(O)[C@@H]1CSCN1; Aib = CC(C)(N)C(=O)O; Sar = CNCC(=O)O

B1: Chem. 61 (peptide)
peptide: cyclo(C[Aib]H[dF]HWCAKKKW)
modifications: disulfide 1-7
SMILES: C[C@@H]1NC(=O)[C@@H]2CSSC[C@H](NC(=O)[C@H](Cc3c[nH]c4ccccc34)NC(=O)[C@H](CCCCN)NC(=O)[C@H](CCCCN)NC(=O)[C@H](CCCCN)NC1=O)C(=O)NC(C)(C)C(=O)N[C@@H](Cc1c[nH]cn1)C(=O)N[C@H](Cc1ccccc1)C(=O)N[C@@H](Cc1c[nH]cn1)C(=O)N[C@@H](Cc1c[nH]c3ccccc13)C(=O)N2
notes: also called c[c[Cys-Aib-His-D-Phe-His-Trp-Cys]-Ala-Lys-Lys-Lys-Trp]
B2: Chem. 74 (peptide)
peptide: cyclo(C[Sar]H[dF]HWCAKKKR)
modifications: disulfide 1-7
SMILES: C[C@@H]1NC(=O)[C@@H]2CSSC[C@H](NC(=O)[C@H](CCCNC(=N)N)NC(=O)[C@H](CCCCN)NC(=O)[C@H](CCCCN)NC(=O)[C@H](CCCCN)NC1=O)C(=O)N(C)CC(=O)N[C@@H](Cc1c[nH]cn1)C(=O)N[C@H](Cc1ccccc1)C(=O)N[C@@H](Cc1c[nH]cn1)C(=O)N[C@@H](Cc1c[nH]c3ccccc13)C(=O)N2
notes: also called c[c[Cys-Sar-His-D-Phe-His-Trp-Cys]-Ala-Lys-Lys-Lys-Arg]
B3: Chem. 100 (peptide)
peptide: cyclo(C[Thz]H[dF]HWCAKKKR)
modifications: disulfide 1-7
SMILES: C[C@@H]1NC(=O)[C@@H]2CSSC[C@H](NC(=O)[C@H](CCCNC(=N)N)NC(=O)[C@H](CCCCN)NC(=O)[C@H](CCCCN)NC(=O)[C@H](CCCCN)NC1=O)C(=O)N1CSC[C@H]1C(=O)N[C@@H](Cc1c[nH]cn1)C(=O)N[C@H](Cc1ccccc1)C(=O)N[C@@H](Cc1c[nH]cn1)C(=O)N[C@@H](Cc1c[nH]c3ccccc13)C(=O)N2
notes: also called c[c[Cys-THAZ-His-D-Phe-His-Trp-Cys]-Ala-Lys-Lys-Lys-Arg]
B4: Chem. 110 (peptide)
peptide: cyclo(C[Thz]H[dF]HWCAKKAW)
modifications: disulfide 1-7
SMILES: C[C@@H]1NC(=O)[C@H](CCCCN)NC(=O)[C@H](CCCCN)NC(=O)[C@H](C)NC(=O)[C@@H]2CSSC[C@H](NC(=O)[C@H](Cc3c[nH]c4ccccc34)NC1=O)C(=O)N1CSC[C@H]1C(=O)N[C@@H](Cc1c[nH]cn1)C(=O)N[C@H](Cc1ccccc1)C(=O)N[C@@H](Cc1c[nH]cn1)C(=O)N[C@@H](Cc1c[nH]c3ccccc13)C(=O)N2
notes: also called c[c[Cys-THAZ-His-D-Phe-His-Trp-Cys]-Ala-Lys-Lys-Ala-Trp]
B5: Chem. 97 (peptide)
peptide: cyclo(C[Hyp]H[dF]HWCAKKKR)
modifications: disulfide 1-7
SMILES: C[C@@H]1NC(=O)[C@@H]2CSSC[C@H](NC(=O)[C@H](CCCNC(=N)N)NC(=O)[C@H](CCCCN)NC(=O)[C@H](CCCCN)NC(=O)[C@H](CCCCN)NC1=O)C(=O)N1C[C@H](O)C[C@H]1C(=O)N[C@@H](Cc1c[nH]cn1)C(=O)N[C@H](Cc1ccccc1)C(=O)N[C@@H](Cc1c[nH]cn1)C(=O)N[C@@H](Cc1c[nH]c3ccccc13)C(=O)N2
notes: also called c[c[Cys-Hyp-His-D-Phe-His-Trp-Cys]-Ala-Lys-Lys-Lys-Arg]
B6: Chem. 109 (peptide)
peptide: cyclo(C[Thz]H[dF]HWCAAKAW)
modifications: disulfide 1-7
SMILES: C[C@@H]1NC(=O)[C@H](C)NC(=O)[C@@H]2CSSC[C@H](NC(=O)[C@H](Cc3c[nH]c4ccccc34)NC(=O)[C@H](C)NC(=O)[C@H](CCCCN)NC1=O)C(=O)N1CSC[C@H]1C(=O)N[C@@H](Cc1c[nH]cn1)C(=O)N[C@H](Cc1ccccc1)C(=O)N[C@@H](Cc1c[nH]cn1)C(=O)N[C@@H](Cc1c[nH]c3ccccc13)C(=O)N2
notes: also called c[c[Cys-THAZ-His-D-Phe-His-Trp-Cys]-Ala-Ala-Lys-Ala-Trp]
B7: Chem. 77 (peptide)
peptide: cyclo(CKH[dF]HWCKKKKW)
modifications: disulfide 1-7
SMILES: NCCCC[C@@H]1NC(=O)[C@H](CCCCN)NC(=O)[C@H](CCCCN)NC(=O)[C@@H]2CSSC[C@H](NC(=O)[C@H](Cc3c[nH]c4ccccc34)NC(=O)[C@H](CCCCN)NC1=O)C(=O)N[C@@H](CCCCN)C(=O)N[C@@H](Cc1c[nH]cn1)C(=O)N[C@H](Cc1ccccc1)C(=O)N[C@@H](Cc1c[nH]cn1)C(=O)N[C@@H](Cc1c[nH]c3ccccc13)C(=O)N2
notes: also called c[c[Cys-Lys-His-D-Phe-His-Trp-Cys]-Lys-Lys-Lys-Lys-Trp]
B8: Chem. 78 (peptide)
peptide: cyclo(CKH[dF]HWCAKKKR)
modifications: disulfide 1-7
SMILES: C[C@@H]1NC(=O)[C@@H]2CSSC[C@H](NC(=O)[C@H](CCCNC(=N)N)NC(=O)[C@H](CCCCN)NC(=O)[C@H](CCCCN)NC(=O)[C@H](CCCCN)NC1=O)C(=O)N[C@@H](CCCCN)C(=O)N[C@@H](Cc1c[nH]cn1)C(=O)N[C@H](Cc1ccccc1)C(=O)N[C@@H](Cc1c[nH]cn1)C(=O)N[C@@H](Cc1c[nH]c3ccccc13)C(=O)N2
notes: also called c[c[Cys-Lys-His-D-Phe-His-Trp-Cys]-Ala-Lys-Lys-Lys-Arg]
B9: Chem. 96 (peptide)
peptide: cyclo(CPH[dF]HWCAHKKR)
modifications: disulfide 1-7
SMILES: C[C@@H]1NC(=O)[C@@H]2CSSC[C@H](NC(=O)[C@H](CCCNC(=N)N)NC(=O)[C@H](CCCCN)NC(=O)[C@H](CCCCN)NC(=O)[C@H](Cc3c[nH]cn3)NC1=O)C(=O)N1CCC[C@H]1C(=O)N[C@@H](Cc1c[nH]cn1)C(=O)N[C@H](Cc1ccccc1)C(=O)N[C@@H](Cc1c[nH]cn1)C(=O)N[C@@H](Cc1c[nH]c3ccccc13)C(=O)N2
notes: also called c[c[Cys-Pro-His-D-Phe-His-Trp-Cys]-Ala-His-Lys-Lys-Arg]
B10: Chem. 95 (peptide)
peptide: cyclo(CPH[dF]HWCAKKHR)
modifications: disulfide 1-7
SMILES: C[C@@H]1NC(=O)[C@@H]2CSSC[C@H](NC(=O)[C@H](CCCNC(=N)N)NC(=O)[C@H](Cc3c[nH]cn3)NC(=O)[C@H](CCCCN)NC(=O)[C@H](CCCCN)NC1=O)C(=O)N1CCC[C@H]1C(=O)N[C@@H](Cc1c[nH]cn1)C(=O)N[C@H](Cc1ccccc1)C(=O)N[C@@H](Cc1c[nH]cn1)C(=O)N[C@@H](Cc1c[nH]c3ccccc13)C(=O)N2
notes: also called c[c[Cys-Pro-His-D-Phe-His-Trp-Cys]-Ala-Lys-Lys-His-Arg]
B11: Chem. 84 (peptide)
peptide: cyclo(C[dK]H[dF]HWCAKKKW)
modifications: disulfide 1-7
SMILES: C[C@@H]1NC(=O)[C@@H]2CSSC[C@H](NC(=O)[C@H](Cc3c[nH]c4ccccc34)NC(=O)[C@H](CCCCN)NC(=O)[C@H](CCCCN)NC(=O)[C@H](CCCCN)NC1=O)C(=O)N[C@H](CCCCN)C(=O)N[C@@H](Cc1c[nH]cn1)C(=O)N[C@H](Cc1ccccc1)C(=O)N[C@@H](Cc1c[nH]cn1)C(=O)N[C@@H](Cc1c[nH]c3ccccc13)C(=O)N2
notes: also called c[c[Cys-D-Lys-His-D-Phe-His-Trp-Cys]-Ala-Lys-Lys-Lys-Trp]
B12: Chem. 58 (peptide)
peptide: cyclo(CAH[dF]K(Ac)WCAK[dK]KW)
modifications: disulfide 1-7
SMILES: CC(=O)NCCCC[C@@H]1NC(=O)[C@@H](Cc2ccccc2)NC(=O)[C@H](Cc2c[nH]cn2)NC(=O)[C@H](C)NC(=O)[C@@H]2CSSC[C@H](NC(=O)[C@H](Cc3c[nH]c4ccccc34)NC1=O)C(=O)N[C@@H](C)C(=O)N[C@@H](CCCCN)C(=O)N[C@H](CCCCN)C(=O)N[C@@H](CCCCN)C(=O)N[C@@H](Cc1c[nH]c3ccccc13)C(=O)N2
notes: also called c[c[Cys-Ala-His-D-Phe-AcLys-Trp-Cys]-Ala-Lys-D-Lys-Lys-Trp]

Molecular target: T1, human melanocortin 4 receptor (human, UniProt P32245 1-332)
Assay: cell-based or functional assay

T1 sequence (P32245 whole entry): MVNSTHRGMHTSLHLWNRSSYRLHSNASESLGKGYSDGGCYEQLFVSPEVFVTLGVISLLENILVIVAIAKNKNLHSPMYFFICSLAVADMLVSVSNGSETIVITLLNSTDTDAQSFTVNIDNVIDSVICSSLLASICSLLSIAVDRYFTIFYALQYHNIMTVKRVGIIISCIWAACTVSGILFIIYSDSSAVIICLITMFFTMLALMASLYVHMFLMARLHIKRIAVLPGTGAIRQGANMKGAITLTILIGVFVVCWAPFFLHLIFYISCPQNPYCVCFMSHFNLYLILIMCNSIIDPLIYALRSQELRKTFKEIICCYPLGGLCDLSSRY

B1 and B2 are within 1.5-fold of each other in “MC4R cAMP EC50” value: 0.31 nM for the first, 0.29 nM for the second.

Going from B3 to B4, the “MC4R cAMP EC50” value rises from 0.02 nM to 0.05 nM (2.5-fold).

B5 and B6 are within 1.5-fold of each other in “MC4R cAMP EC50” value: 0.19 nM for the first, 0.15 nM for the second.

Compared with B7, B8 is 12-fold lower in “MC4R cAMP EC50” value: 0.46 nM for the first, 0.04 nM for the second.

First: B9
Second: B10
The “MC4R cAMP EC50” value of the first is 5.5-fold lower: 0.04 nM for the first, 0.22 nM for the second.

Compared with B11, B12 is 5.4-fold lower in “MC4R cAMP EC50” value: 0.59 nM for the first, 0.11 nM for the second.

Molecular target: human melanocortin 1 receptor (human, UniProt Q01726 1-317)
Assay: cell-based or functional assay

human melanocortin 1 receptor, sequence (Q01726 whole entry): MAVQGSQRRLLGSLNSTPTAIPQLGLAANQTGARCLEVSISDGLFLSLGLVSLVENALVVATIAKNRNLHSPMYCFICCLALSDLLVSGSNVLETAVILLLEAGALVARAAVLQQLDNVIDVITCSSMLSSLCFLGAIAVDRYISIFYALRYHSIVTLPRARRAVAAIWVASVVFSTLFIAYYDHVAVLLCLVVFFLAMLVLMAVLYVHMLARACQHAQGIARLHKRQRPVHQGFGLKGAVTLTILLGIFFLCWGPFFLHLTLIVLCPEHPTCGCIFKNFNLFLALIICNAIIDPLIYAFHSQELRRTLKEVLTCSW

B1 and B2 cannot be ordered by “MC1R cAMP EC50” value: greater than 1 nM for the first, greater than 5.5 nM for the second.

First: B3
Second: B4
The “MC1R cAMP EC50” value of the first is 3.4-fold lower: 18.5 nM for the first, 63.3 nM for the second.

B5 and B6 cannot be ordered by “MC1R cAMP EC50” value: 23.1 nM for the first, greater than 7 nM for the second.

Compared with B7, B8 is 13-fold lower in “MC1R cAMP EC50” value: 49.8 nM for the first, 3.8 nM for the second.

Compared with B9, B10 is 1.5-fold higher in “MC1R cAMP EC50” value: 57.7 nM for the first, 87.7 nM for the second.

Going from B11 to B12, the “MC1R cAMP EC50” value falls from 43.4 nM to 3.93 nM (11-fold).

Molecular target: T1, human melanocortin 4 receptor
Assay: competition with 125-NDP-α-MSH, BHK human MC4R membranes
Experimental: In order to assess the binding affinity of the selected compounds for the human MC4R competitive binding assays was performed with radiolabeled NDP-alpha MSH (¹²⁵NDP-α-MSH).
The assay was performed in 96-well filterplates (Unifilter) using BHK cells stably expressing the human MC4 receptor.
The BHK cell membranes were prepared from frozen or fresh cells that were homogenized in 20 mM HEPES pH 7.1, 5 mM MgCl₂, 1 mg/ml bacitracin (buffer 1) and centrifuged at 15000 rpm at 4° C., 10 min in a Sorvall RC 5B plus, SS-34 rotor. The supernatant was discarded, and the pellets were re-suspended in buffer 1, homogenized and centrifuged two more times. The final pellets were re-suspended in buffer 1 and the protein concentration was measured and adjusted with buffer 1 to 5 mg/ml and the membrane preparation was kept at −80° C. until assay. The assay was run on a dilution of this cell membrane suspension without any further preparation. The suspension was diluted to give maximally 10% specific binding, i.e. to approx. 50-100 fold dilution, optimized after each membrane preparation. The assay was performed in a total volume of 200 μl: 50 μl of cell suspension, 50 μl of ¹²⁵NDP-α-MSH (apx. […] in final concentration), 50 μl of test compound and 50 μl binding buffer were mixed and incubated for 2 h at 25° C. (binding buffer: 25 mM HEPES, pH 7.0, 1 mM CaCl₂), 1 mM MgSO₄, 1 mM EGTA, 0.005% Tween™ 20 and 0.1% HSA or, alternatively, 0.1% ovalbumin (Sigma; catalogue No. A-5503)). Test compounds were dissolved in 100% DMSO and diluted in binding buffer in a dose range from 1 μM to 0.001 nM. Radiolabelled ligand and membranes were diluted in binding buffer. The incubation was stopped by dilution with 8×100 μl ice-cold 0.9% NaCl. The radioactivity retained on the filters was counted using a Packard Topcounter. The data were analysed by non-linear regression analysis of binding curves, using the Windows™ program GraphPad™ Prism (GraphPad Software, USA).

Compared with B1, B2 is 2.8-fold lower in Ki: 0.22 nM for the first, 0.08 nM for the second. The second binds more tightly here.

Going from B3 to B4, the Ki rises from 0.04 nM to 0.09 nM (2.2-fold). The first binds more tightly here.

Compared with B5, B6 is 6-fold higher in Ki: 0.05 nM for the first, 0.3 nM for the second.

Going from B7 to B8, the Ki falls from 0.72 nM to 0.02 nM (36-fold). The second binds more tightly here.

Going from B9 to B10, the Ki rises from 0.04 nM to 0.07 nM (1.8-fold). The first binds more tightly here.

Going from B11 to B12, the Ki falls from 0.19 nM to 0.09 nM (2.1-fold). The second binds more tightly here.
